Like-named read-outs stand apart in the source and are kept apart here. Where no end group is shown, it is not given here.
Key:
TRPV1 [1] = target: T1, TRPV1 (Rattus norvegicus, UniProt O35433); assay: cell-based
T1 construct: expressed in transfected cells; host or cells: Xenopus laevis oocytes injected with cRNA
Description: To control the expression level of the TRPV1 channels, experiments were initiated with a first activation of TRPV1 with 1 μM capsaicin (CAP). […] This activation gives an inward non-selective cation current. […] Before application of HCRG21, cells are washed with ND96 to remove any presence of […]. […] However, when rHCRG21 was co-applied together with the agonist capsaicin, a reduction of the current was observed (Figure 5b). […] A concentration–response curve was constructed in order to assess the concentration dependence of the rHCRG21 induced effect. The IC50 value yielded 6.9 ± 0.4 μM (Figure 5c).
Figure 5 Activity profile of rHCRG21 (10 μM) on the TRPV1 receptor. The figures show the results of one representative experiment. Whole-cell current traces in control and rHCRG21 conditions are shown. […] All data represent the average of at least three independent experiments (n ≥ 3) and are presented as mean ± standard error; (c) Concentration–response curve for rHCRG21 on TRPV1 receptor.
For the expression of rKv1.1, hKv1.3, rKv1.4, rKv1.5, rKv1.6, Shaker IR, hERG, and TRPV1 in Xenopus oocytes, the linearized plasmids were transcribed using the T7 or SP6 mMESSAGE-mMACHINE transcription kit (Ambion, Austin, TX, USA). The harvesting of stage V–VI oocytes from anaesthetized female Xenopus laevis frog was previously described. Oocytes were injected with 50 nL of cRNA at a concentration of 1 ng/nL using a micro-injector (Drummond Scientific, Broomall, PA, USA). The oocytes were incubated in a solution containing (in mM): NaCl, 96; KCl, 2; CaCl2, 1.8; MgCl2, 2 and HEPES, 5 (pH 7.4), supplemented with 50 mg/L gentamicin sulfate.
Two-electrode voltage-clamp recordings were performed at room temperature (18–22 °C) using a Geneclamp 500 amplifier (Molecular Devices, Sunnyvale, CA, USA) controlled by a pClamp data acquisition system (Axon Instruments, Foster City, CA, USA). Whole cell currents from oocytes were recorded 1–4 days after injection. Bath solution composition was ND96 (in mM): NaCl, 96; KCl, 2; CaCl2, 1.8; MgCl2, 2, and HEPES, 5 (pH 7.4). Voltage and current electrodes were filled with 3 M KCl. Resistances of both electrodes were kept between 0.8 and 1.5 MΩ. The elicited currents were filtered and sampled at, respectively, 1 kHz and 10 kHz (for potassium currents) and at, respectively, 0.2 kHz and 0.5 kHz (for TRPV1 currents), using a four-pole low-pass Bessel filter. Leak subtraction was performed using a –P/4 protocol. KV1.1–KV1.6 and Shaker currents were evoked by 500 ms depolarizations to 0 mV followed by a 500 ms pulse to −50 mV, from a holding potential of −90 mV. Current traces of hERG channels were elicited by applying a +40 mV prepulse for 2 s followed by a step to −120 mV for 2 s. TRPV1 currents were measured in ND96 solution using a protocol of −90 mV during 400 s. The recording chamber was perfused at a rate of 2 mL·min^−1 with a ND96 solution. As previously described, capsaicin (2 μM) was used as an agonist and capsazepine (10 μM) as an antagonist of TRPV1. Capsaicin and capsazepine were purchased from Sigma. All data represent at least 3 independent experiments (n ≥ 3) in which independent experiments represent experiments on different cells expressing TRPV1 channel and are presented as mean ± standard error.

α-chymotrypsin [2] = target: α-chymotrypsin (Bos taurus, UniProt P00766); conditions: cited from earlier work
From the text: The HCGS peptide subfamily and their evolutionary relationships were described in details previously. […] Moreo ...

TRPV1 [3] = target: T1, TRPV1; conditions: cited from earlier work
From the text: They are the first sea anemone peptide characterized as TRPV1 modulators. […] It belongs to the family of polymodal TRP channels, serving as a molecular cellular sensor, which is activated by a wide spectrum of physical and chemical stimuli. They have diverse biophysical properties such as cation selectivity, specific mechanisms of activation, and they play the main role in ma ... || To control the expression level of the TRPV1 channels, experiments were initiated with a first activation of TRPV1 with 1 μM capsaicin (CAP). […] This activation gives an inward non-selective cation current. […] Before application of HCRG21, cells are washed with ND96 to remove any presence of capsazepine. […] Similarly ... || (+ 3 further places)

trypsin [4] = conditions: cited from earlier work
From the text: The HCGS peptide subfamily and their evolutionary relationships were described in details previously. […] It is shown, that the first known H. crispa analgesic Kunitz-type peptides, APHC1–APHC3, have a Thr residue (instead of Lys or Arg) at position P1, similar to other representatives of the analgesic cluster (Figure 1a,b).

[5] = test system: voltage-gated potassium channels; conditions: cited from earlier work
From the text: For many potent Kv channel blocking toxins, such as α-DTX, DTX-K, and DTX-I, isolated from the snake Dendroaspis polylepis, it has been well established that mainly a series of positive charged residues (for example, R3, R4, K5, K37, K39, K46, and K50 in α-DTX) are crucial for interaction with the Kv channel. […] Although there are many positively charged residues present in the sequence of HCRG21, they do differ in position with known Kv1.1–Kv1.6 blockers, such as α-DTX, DTX-K, DTX-I, AsKC1, and ShPI-1 (Figure 1c). […] Noteworthy, several positively charged residues are conserved between HCRG21 and ShPI-1 (in positions 8, 19, 28, 51, and 55, Figure 1c). Therefore, other Kv channel isoforms should be tested for their sensitivity to HCRG21 as ...

[6] = test system: serine, cysteine and aspartate proteases; conditions: cited from earlier work
From the text: To date, a number of highly homologous native serine protease inhibitors has been isolated from different species: Anemonia sulcata, Heteractis crispa, Anthopleura aff. xanthogrammica, Anthopleura fuscoviridis, Stichodactyla helianthus, and Stichodactyla haddoni.

α-chymotrypsin [7] = assay: enzyme inhibition kinetics (Dixon method); trypsin with BAPNA, α-chymotrypsin with BTEE as substrate; substrate concentrations 133 and 65 mM; both enzymes 215 nM; peptide 0 up to 3.2 mM; three parallel experiments
trypsin [8] = assay: as above
[9] = target: transient receptor potential family member vanilloid 1 (TRPV1) (UniProt O35433)
Sequence of transient receptor potential family member vanilloid 1 (TRPV1) (O35433 whole entry): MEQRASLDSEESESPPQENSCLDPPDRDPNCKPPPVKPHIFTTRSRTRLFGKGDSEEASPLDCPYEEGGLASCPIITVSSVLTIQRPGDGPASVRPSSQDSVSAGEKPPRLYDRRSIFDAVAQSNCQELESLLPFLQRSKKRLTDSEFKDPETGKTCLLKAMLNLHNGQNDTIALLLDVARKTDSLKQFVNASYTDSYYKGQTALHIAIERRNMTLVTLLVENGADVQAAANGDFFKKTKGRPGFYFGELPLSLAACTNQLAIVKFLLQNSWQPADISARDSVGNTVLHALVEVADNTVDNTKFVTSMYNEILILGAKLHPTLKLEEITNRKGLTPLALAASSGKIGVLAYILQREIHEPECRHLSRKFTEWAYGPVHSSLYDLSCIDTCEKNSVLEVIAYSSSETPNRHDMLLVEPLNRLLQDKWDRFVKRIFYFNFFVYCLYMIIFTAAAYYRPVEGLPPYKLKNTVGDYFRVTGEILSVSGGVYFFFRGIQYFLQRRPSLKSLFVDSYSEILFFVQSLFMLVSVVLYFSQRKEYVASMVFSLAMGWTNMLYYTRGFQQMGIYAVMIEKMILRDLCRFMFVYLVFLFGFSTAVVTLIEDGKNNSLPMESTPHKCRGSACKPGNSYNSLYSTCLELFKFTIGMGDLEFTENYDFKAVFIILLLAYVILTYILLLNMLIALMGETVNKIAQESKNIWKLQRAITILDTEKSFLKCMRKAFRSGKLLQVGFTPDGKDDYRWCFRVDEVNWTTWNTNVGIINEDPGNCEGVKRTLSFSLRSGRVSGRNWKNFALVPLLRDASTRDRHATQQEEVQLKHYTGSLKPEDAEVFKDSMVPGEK

T1 sequence (O35433 whole entry): as above

COc1cc(CNC(=O)CCCC/C=C/C(C)C)ccc1O [capsaicin, reference compound]
effect on TRPV1 (control agonist) (TRPV1 [1]): opens the channels

Oc1cc2c(cc1O)CN(C(=S)NCCc1ccc(Cl)cc1)CCC2 [capsazepine, reference compound]
effect on capsaicin-activated TRPV1 (control antagonist) (TRPV1 [1]): closes the channels allowing the current levels to return to zero

APHC1: H. crispa analgesic Kunitz-type peptide (UniProt B2G331)
Ki (α-chymotrypsin [2]): 5000 nM

APHC1: H. crispa analgesic Kunitz-type peptide (UniProt B2G331) (GSICLEPKVVGPCTAYFRRFYFDSETGKCTVFIYGGCEGNGNNFETLRACRAICRA; three disulfides (Kunitz fold)) [reference compound]
EC50 (TRPV1 [3]; read-out: EC50, decrease of capsaicin induced currents through TRPV1): 54 ± 4 nM

APHC2: H. crispa analgesic Kunitz-type peptide (UniProt C0HJF4)
Ki (α-chymotrypsin [2]): 4500 nM

APHC3: H. crispa analgesic Kunitz-type peptide (UniProt C0HJF3)
Ki (α-chymotrypsin [2]): 7000 nM

AsKC1: kalicludine from Anemonia sulcata (UniProt Q9TWG0) (INKDCLLPMDVGRCRASHPRYYYNSSSKRCEKFIYGGCRGNANNFHTLEECEKVCGVR; ends and bridges not checked; cysteine pairing not given here; UniProt Q9TWG0 1-58, looked up)
Ki (trypsin [4]): < 0.3 nM

AsKC2: kalicludine from Anemonia sulcata (UniProt Q9TWF9) (INKDCLLPMDVGRCRARHPRYYYNSSSRRCEKFIYGGCRGNANNFITKKECEKVCGVR; ends and bridges not checked; cysteine pairing not given here; UniProt Q9TWF9 1-58, looked up)
Ki (trypsin [4]): < 0.3 nM

AsKC3: Kunitz-type peptide from Anemonia sulcata (UniProt Q9TWF8) (INGDCELPKVVGRCRARFPRYYYNLSSRRCEKFIYGGCGGNANNFHTLEECEKVCGVRS; ends and bridges not checked; cysteine pairing not given here; UniProt Q9TWF8 1-59, looked up)
Ki (trypsin [4]): < 0.3 nM

SHPI-1: protease inhibitor from the sea anemone Stichodactyla helianthus (UniProt P31713) (SICSEPKKVGRCKGYFPRFYFDSETGKCTPFIYGGCGGNGNNFETLHQCRAICRA; UniProt P31713 1-55, looked up)
binding to Kv1.1, Kv1.2, and Kv1.6 channels [5]: binds with high affinity
Ki (trypsin [4]): 0.11 nM
protease inhibitory specificity [6]: inhibits not only serine but also cysteine and aspartate proteases
Ki (α-chymotrypsin [2]): 2.3 nM

recombinant HCRG21, Kunitz-type peptide from the sea anemone Heteractis crispa (from UniProt P0DL86 1-56)
Ki (α-chymotrypsin [7]): 700 nM

B1: recombinant HCRG21, Kunitz-type peptide from the sea anemone Heteractis crispa (peptide)
chain: RGICSEPKVVGPCTAYFRRFYFDSETGKCTPFIYGGCEGNGNNFETLRACRAICRA
Ki (trypsin [8]): 200 nM
IC50 of the inhibition of the capsaicin-induced current through TRPV1 in X. laevis oocytes (two-electrode voltage clamp, peptide co-applied with capsaicin; concentration-response curve) [9]: 6900 nM

B2: DkTx: double-knot toxin from the Chinese bird spider Ornithoctonus huwena (peptide, UniProt P0CH43 1-79, looked up)
Tau-theraphotoxin-Hs1a: DCAKEGEVCSWGKKCCDLDNFYCPMEFIPHCKKYKPYVPVTTNCAKEGEVCGWGSKCCHGLDCPLAFIPYCEKYRGRND
effect of DkTx on TRPV1 current (TRPV1 [3]; conformational change in the receptor upper pore region): enhances the ion current through the channel
TRPV1 agonism (TRPV1 [3]; ref 48 (DkTx), ref 49 (VaTx1–VaTx3), ref 50 (BmP01)): agonists

Reference: PMC5192466, “Kunitz-Type Peptide HCRG21 from the Sea Anemone Heteractis crispa Is a Full Antagonist of the TRPV1 Receptor” (Marine Drugs, 2016)
